In publication PMC4122344, “Heterodimerization of p45–p75 Modulates p75 Signaling: Structural Basis and Mechanism of Action” (PLoS Biology, 2014):
Where a chain is given by its changes, count along the chain named. Names may count otherwise.

T1: Flag-tagged human NgR (human, UniProt Q9BZR6 27-447)
T1 construct: Nogo-66 receptor (NgR), human; Printed both as Flag-hNgR and as NgR-Flag; also called Flag-hNgR; NgR-Flag; source: HEK293, transfected, in lysate
T1 sequence (looked up): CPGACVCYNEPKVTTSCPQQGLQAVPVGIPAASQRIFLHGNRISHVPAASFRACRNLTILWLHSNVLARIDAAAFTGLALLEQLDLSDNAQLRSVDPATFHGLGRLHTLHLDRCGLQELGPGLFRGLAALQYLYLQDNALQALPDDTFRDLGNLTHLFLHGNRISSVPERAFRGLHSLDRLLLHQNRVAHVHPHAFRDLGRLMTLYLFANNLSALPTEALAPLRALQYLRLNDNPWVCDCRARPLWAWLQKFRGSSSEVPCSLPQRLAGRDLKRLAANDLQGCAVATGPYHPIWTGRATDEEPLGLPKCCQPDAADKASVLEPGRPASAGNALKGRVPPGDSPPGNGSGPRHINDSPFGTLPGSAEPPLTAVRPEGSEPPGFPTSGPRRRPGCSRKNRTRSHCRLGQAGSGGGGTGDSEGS

T2: p75ICD (residues 290–418) (human, UniProt P08138 290-418)
T2 chain: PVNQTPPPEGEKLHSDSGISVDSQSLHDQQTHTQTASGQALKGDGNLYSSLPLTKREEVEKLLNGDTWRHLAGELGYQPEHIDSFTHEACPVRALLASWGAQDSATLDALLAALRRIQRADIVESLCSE

B1: p75 D372R (full-length) (receptor, UniProt P07174 30-425, looked up)
chain: KETCSTGLYTHSGECCKACNLGEGVAQPCGANQTVCEPCLDNVTFSDVVSATEPCKPCTECLGLQSMSAPCVEADDAVCRCAYGYYQDEETGHCEACSVCEVGSGLVFSCQDKQNTVCEECPEGTYSDEANHVDPCLPCTVCEDTERQLRECTPWADAECEEIPGRWIPRSTPPEGSDSTAPSTQEPEVPPEQDLVPSTVADMVTTVMGSSQPVVTRGTTDNLIPVYCSILAAVVVGLVAYIAFKRWNSCKQNKQGANSRPVNQTPPPEGEKLHSDSGISVDSQSLHDQQTHTQTASGQALKGDGNLYSSLPLTKREEVEKLLNGDTWRHLAGELGYQPEHIRSFTHEACPVRALLASWGAQDSATLDALLAALRRIQRADIVESLCSESTATSPV
notes: p75 neurotrophin receptor; source: HEK293, transfected, in lysate
B2: p75 E377R (full-length) (receptor, UniProt P07174 30-425, looked up)
chain: B1 chain with R343D, E348R
notes: as for B1
B3: p75 H376E (full-length) (receptor, UniProt P07174 30-425, looked up)
chain: B1 chain with R343D, H347E
notes: as for B1
B4: p75-C257A (full-length) (receptor, UniProt P07174 30-425, looked up)
chain: B1 chain with C228A, R343D
notes: p75 neurotrophin receptor; also called p75 TM domain mutant; source: HEK293, transfected, in lysate
B5: p75ICD (residues 290–418) (domain or fragment)
chain: T2 chain
modifications: Methods print 'human p75ICD', but all residue numbers (L360, E363, Q367, D372, H376, E377, C379, W388, R404) and the mapped structure 1NGR fit the rat precursor; human P08138 is offset by +2 in this …

What was measured:
[1] = biological target: T1, Flag-tagged human NgR; test: co-IP; HEK293 co-transfected with wild-type or mutant p75 and Flag-tagged NgR; p75 co-immunoprecipitated with NgR; blots quantified, wild type = 100%; conditions: partners not purified
[2] = biological target: T2, p75ICD (residues 290–418); test: SEC; S200-Superdex gel filtration, 4 °C, PBS pH 8.0, 0.7 ml/min; p75ICD purified with or without DTT (or with iodoacetamide in the lysis buffer); conditions: both partners purified
[3] = biological target: T2, p75ICD (residues 290–418); test: NMR titration; TROSY spectra of 15N-labelled p75ICD at different concentrations (10, 100, 500 µM) with DTT; 25 °C, PBS pH 8.0, 100 mM NaCl; monomer to dimer; conditions: both partners purified

| Binder | percent co-immunoprecipitated with NgR (WT, 100%) [1] | stoichiometry N [2] | Kd [3] |
| --- | --- | --- | --- |
| B1 | 61.8% | – | – |
| B2 | 27.4% | – | – |
| B3 | 125% | – | – |
| B4 | 17.7% | – | – |
| B5 | – | 2 | ~100 µM |
